Data from the nanobody polyreactivity screen of Harvey et al. (2022).

Assay: yeast display, Sf9 membrane polyspecificity reagent, FACS + sequencing; frameworks hold sequencing errors
Summary of the method: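 Galactose induction of a Saccharomyces cerevisiae BJ5465 synthetic nanobody display library ran 36–48 hours. The cells were then stained for 1 hour at 4 °C with 10% biotinylated, detergent-solubilized Sf9 membrane reagent, pulled down on streptavidin microbeads and FACS-sorted into low and high (top ~1%) gates on expression and reagent-binding fluorescence. Labels for polyreactivity follow the gate of origin.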

Sequence	polyreactivity (PSR sort gate)
QVQLVESGGGLVQAGGSLRLSCAASGSTFVDNAMGWYRQAPGKERELVAAISSSGGTTYYADSVKGRFTISRDNAKNTVYLQMNSLKPEDTAVYYCAARRRSGTYWRSANDYWGQGTQVTVSS	high polyreactivity
QVQLVESGGGLVQAGGSLRISCAASGSTFASTALGRYRLAAGKEMELVASISGSGGSTFYADSVKGRFTISRDNAKNTVYLQMNSLKPEDTEVYYCAAYKEPYYEEYGYGGQGTQVTVSS	low polyreactivity
QVQLVESGGGLVQAGGSLRLSCAASGITFSVNAMGWYRQAPGKEREFVAAISSSGGSTYYADSLKGRFTISRDNAKNTVYLQMNSLKPEDTAVYYCAASGRVQRQHYRPYPYGYWGQGTQVTVSS	high polyreactivity
QVQLVESGGGLVQAGGSLRLSCAASGRIFYYYAMGWYRQAPGKERELVAAITWSGGSTYYADSVKGRFTISRDNAKNTVYLQMNSLKPEDTAVYYCAAEWAYWDEWSGDYYLLGYWGQGTQVTVSS	high polyreactivity
QVQLVESGGGLVQAGGSLRLSCAASGRTLWLYAMGWYRQAPGKERELVAAITRSAGTTYYADSVKGRFTISRDNAKNTVYLQMNSLKPEDTAVYYCATRYPQSSLSTSSRSSSGYWGQGTQVTVSS	high polyreactivity
QVQLVESGGGLVQAGGSLRLSCAASGFTFSWYAMGRYRQAPGKERELVAAISSAGNTNYADSVKGRFTISRDNAKNTVYLQMNSLKPEDTAVYYCAKRDYWGQGTQVTVSS	high polyreactivity
QVQLVESGGGLVQAGGSLRLSCAASGSIFYYYAMGWYRQAPGKERELVARITFSGGDTYYADSVKGRFTISRDNAKNTVYLQMNSLKPEDSAVYYCAAYCSYFFAWLDSYRDDYDYWGQGTQVTVSS	low polyreactivity
QVQLVESGGGLVQAGGSLRLSCAASGRTFYYYAMGWYRPAPGKERELVAAISWSGGRTYYADSVKGRFTISRDNAKNTVYLQMNSLKPEDTAVYYCNAEPPRGYTVSSGGEMDYWGQGTQVTVSS	low polyreactivity
QVQLVESGGGLVQAGGSLRLSCAASGSIFSPNDMGWYRPAHGKERELVAAITSAGSTFYADSVKGRFTISRDNAKNTVYIQMNSLKPEDTAVDYCSATYISVTDYAYFPLWYGYWGQGTQVTVSS	low polyreactivity
QVQLEESGGGLVQAGGSLRLSCAASGRIFMTYAMGWYRQAPGKERELVAAITRRGGTTYYADSEKARFTISRDNAKNTVYLQMNCLKPEDTAVYYCAPAKPRVISQNIIYDYWGQGTQVTVSS	high polyreactivity
QVQLVESGGGLVQAGGSLRLSCAASGSTFRRNAMGWYRQAPGKERELVAAITSTDSTYYADSVKGRFTISRDNAKNTVYLQMNSLKPEDTAVYYCAKGYCWGGQMGYWGQGTQVTVSS	low polyreactivity
QLQLVESGGGLVQAGGSLRLSCAASGRTFVSIALGWYRQAPGKERELFAGINWTDDSTYYADSVKGRFTISRDNAKHSVYLQMNCLKPEDTAVYYCAADQQDGLWDYQDWYDYWGPGTQVTVSS	low polyreactivity
QVQLVESGGGLVQAGGSLRLSCAASGFIFLVNAMGWYRHAPGKERELVAAITTSGASTYYADSVKGRFTISRDNAKNTVYLQMNSLKPEDTAVYYCAAGSYARPEYGYWGQGTQVTVSS	low polyreactivity
QVQLVESGGGLVQAGGSLRLSCSASGIIFSTYAKGWYRQAPGKERELVAAITSTGSTNYADSVKGRFTISRDNAKNTVYLQLNSLKPEDTAVYYCAARYAGPSPTDTGHDYWGQGTQVTVSS	low polyreactivity
QVQLVESGGGLVQAGGSLRLSCAASGRILYSYAMGWYRQAPGKERELVADITQRGGTTDYADSVKGRFTISRDNAKTTVYVQMNSLKPEDTAVYYCNANSYRSYGGRGGVEYDYWGEGTQVTVSS	low polyreactivity
QVQLVESGGGLVQAGGSLRLSCAASGSTFYYYTMGWYRQAPGKERELVAISWDGDSTYYADSVKGRFTISRDNAKNTVYLQMNSLKPEDTAVYYCAAADYYLPDDVSDYVDANFDYWGQGTQVTVSS	low polyreactivity
QVQIVESGGGLVQAGGSLRLSCAASGSIFTYNAMGWYRQAPGKERELVAAISYSGVRTYYADSVKGRFTISRDNAKNTVYLQMNSLKPEDTAVYYCNTRYPYSVLKYGYWGQGTQVTVSS	high polyreactivity
QVQLVESGGGLVQAGGSLRLSCAASGSTFKWNAMGWYRQAPGKERELVAAISKGSVNTYYADSVKGRFTISRDNAKNTVYLQMNSLKPEDTAVYYCAADRRYPALDYWGQGTQVTVSS	high polyreactivity
QVQLVESGGGLVQAGGSLRLSCAASGIIFGRYARGWYRQAPGKDRELVATISYRGGRTNYADSVKGRFTISRDNAKNTVYLQSNSLKPEDTAVYDCAAPHFSYSGGTHDYWGQGTQVTVSS	high polyreactivity
QVQHVESGGGLVQAGGSLRLSCAASGFISYFYAMGWYRQAPGKERELVPVNTQSGGSTYFADSVKGRFTISRDNAKNTVYLQMNSLKPEDTAVYYCNADTVRDYPFFSVSYYYWGQGTQVTVSS	low polyreactivity
QVQLQESVGGLVQAGGSLRLSCAASGNIFPTHRMGWYRQAPGKELEFVATISDGGSTNYADSVKGRFTISRDHAKNTVYLQMNSLKPEDTAVYYCAVLSLGRLRHYYWGQGTQVTVSS	low polyreactivity
QVHLQESGGGLVQAGGSLRLSCAASGTIFASQHMGWYRQAPGKERELVASIAKGGTTYYADSVKGRFTISRGNAKNTEYLQMNRLKPEDTAVYYCAARGWGYRRTYVYAWYDYWGQGTQVTVSS	high polyreactivity

Sequence	polyreactivity (PSR sort gate)
QVQLVESGGGLVQAGGSLRLSCAASGSTFLNYAMGWYRQAPGKERELVAAISGRGGRTYYADSVKGRFTISRDNAKNTVYLQMNSLKPEDTAFYYCAARIWVSYTSYDYWGQGTQVTVSS	high polyreactivity
QVQLVESGGGLVQAGGSLRLSCAASGSTFVYYAMGWYRQAPGKERELVAAINRSGTRTYYADSVKGRFTISRDNAKNTVYLQMNSLKPEDTAVYYCAKAVQGKYGYWGQGTQVTVSS	high polyreactivity
QVQLVESGGGLVQAGGSLRLSCPASGSTFLFNAMGWYRQAPGKERELVAAIRSDGSTDYADSVKGRFTISRDNAKTTVYLQMNSLKPEDTAVYYCAAESITGYVSDFDYWGQGTQVTVSS	low polyreactivity
QDQLVDSGGGLVQAGGRLRLSCAASGLTLGSYAMGWSRQAPGQVRELVAAITRGGRSNYADSVKGRFSISRDNAKNTVYLQMYSLKPEDTAVYYCYADGPGYAAKYYWIYDYWGQGTQVTVSS	low polyreactivity
QVQRVESGGGLVQAGGSLRLSCAASRRIFKLYAMGWYIQAPGKERELVAAINRRGGSTSYADSVKVRFTISRDYAKNTVYLQMNSLKPEDTAVYYCAASYTGRTVVQGYEYWGQGTQVTVSS	high polyreactivity
QVQLVESGGGLVQAGGSLGLSCAASGSTFQFYAMGWNRQAPGKERELVAAISWSSGSTYYADSVKGRFTISRDNAKNSVYLQMNSLKPEHTAVYYCNARYPWSYRYWDGGYWGQGTQVTVSS	low polyreactivity
QVQLVESGGCLVQAGGSLRLSCAASGIIFYTYAMGWYRQAPGKEREFVAGIRWSGSSTYYADSVKGRFTISRDNAKNTVYLQMNSLKPEDTAVYYCATGQPYGPLYSLGYGYWGQGTQVTVSS	high polyreactivity
QVQHVETGGGLVQAGGSLRLSCAASGFIFSQYAMGWYRQAPGKERELVAAISSGSTYADSVKGRVTISRDNAKNTVYLQMNSLKPEDTAVYYCAVDYHQAWPSADYWFEYVYWGQGTQVTVSS	low polyreactivity
QVQRVESGGGLVQAGGSLRLSCAASGSIFYGNAMGWYRQAPGKERELVAAISWSGGSTYYADSVKGRFTISRDNAKNTVYLQMNSLKPEDTAVYYCATVADEPRAYSGYEESDYWGQGTQVTVSS	low polyreactivity
QVQLVESGGGLVQAGGSLRLSCAASGSTFYNNAMGWYRQAPGKERELVAAITRTGGRTYYADSVKGRFTISRDNAKNTVYLQMNSLKPEDTAVYYCAALRYGQGSISAFDYWGQGTQVTVSS	high polyreactivity
QVQLVESGGGLVQAGGSLRISCAASGRTSHAYAMGWYRQAPGKERELVAAITRVTSTYYADSVKGRFTISRDNAKNTVYLQMNSLKPEDTAVYYCAAGKGYYRSDYWGQGTQVTVSS	low polyreactivity
QVQLVESGGGLVHAGGSLRLSCAASGSIFEGNGMGWYRQAPGKERELVAAITFRSGSTYNADSVKGRFTISRDNEKNTVYLPMNSLKPEDTAVYYCAADEYYQVSAYDYWGQGTQVTVSS	low polyreactivity
QVQLVESGGGLVQAGGSLRLSCAASGSTFYLYDMGWYRQAPGKEREMVAAISWSSGSTYYADSVKGRFTISRDNAKNTVYLQMNSLKPEETAVYYCAAGPSDTEYWLFDYWGQGTQVTVSS	high polyreactivity
QVQLVESGGCLVQAGGSLRLSCAASGSINRSYAMAWYRQAPGKDWELVASISRRGGSTYYADSVKGRFTISRDNAKNSVYLQMNRLKPEDSAVYYCAAVRYNSRVSTTPSEMYYWGQGTQVTVSS	low polyreactivity
QVQLVESGGGLVQAGGSLRLSCADSGFIFYDYTMGWYRQAPGKERELVAVISRGGSTYYADSVKGRFTISRDNAKNTVYLQMNSLNPEDSAVYYCAARPRWYTFTRQEYDYWGQGTQVTVSS	high polyreactivity
QVQLVESGGGLVQAGGSLRLSCAASGIIFLWYAMRWYRQAPGKERELVAAISRTGSSTYYADSVKGRFTISRDTAKNTVYLQMNSLKPEDTAVYYCAAAYYSNRSWRFDYWGQGTQVTVSS	high polyreactivity
QVQLLESGGGLVQAGGILRLSCAASGSTFYPYAMGWSRQAPGKDRELVAAITGTGGSTYYADSVKGRFRISLDNAKNTVDLQMNSLKPEDPAVYYCATRRRYYYSGYNYWGQGTQVTVSS	high polyreactivity
QVQLVESGGGLVQAGGTLRLSCAASGYTSSLNAMRWYRQAPGKERELVARITTDGTSTYYADSVKGRFTISRDNAKNTVYLQMNSLKPEDTAVYYCNARYPAYGVRSWYPYAYYYWGQGTQVTVSS	low polyreactivity
QVLLVESGGGLVQAGGSLRLSCAASGRTSFQYAMGWYSQAPGTDRELVAALSWSGGATVYADSVKGRFTISRDNAKNTDYLQMNSLKPEDTAVYYCAKRRRLDQNTCYGLDYWGQGTQGTVSS	low polyreactivity
QVQLVESGGGLVQAGGSLRLSCAASGSIFNTYAMGWYRQAPGKERELVAAISRSGDSTYYADSVKGRFTISRDNAKNTVYLQMNSLKPEDTAVYYCATGRTDHGYYYWGQGTQVTVSS	high polyreactivity
QVQLVESGGGLVQAGGSLRLSCAASGRIFGHYAMGWYRQAPGKERELVAAISRSGTRTYYADSVKGRFTISRDNAKNTVYLQMNSLKPEDTAVYYCAAYTYKGIYYYWGQGTQVTVSS	high polyreactivity
